Data published in patent US20190194329A1 (AbbVie / Abbott, published 2019).

T1: His-tagged ECD of mouse 4-1BB (mouse, UniProt P20334 24-187)
T1 construct: also called murine 4-1BB; mu4-1BB; not shown: His tag
T1 sequence: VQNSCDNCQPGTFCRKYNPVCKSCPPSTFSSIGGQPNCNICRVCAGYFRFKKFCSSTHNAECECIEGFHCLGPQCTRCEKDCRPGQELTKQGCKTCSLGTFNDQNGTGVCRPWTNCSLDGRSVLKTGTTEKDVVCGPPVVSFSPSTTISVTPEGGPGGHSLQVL

T2: His-tagged ECD of cynomolgus monkey 4-1BB (cynomolgus monkey, UniProt Q07011 24-186 (human entry))
T2 construct: also called cynomolgus 4-1BB; cyno 4-1BB; not shown: His tag
T2 chain: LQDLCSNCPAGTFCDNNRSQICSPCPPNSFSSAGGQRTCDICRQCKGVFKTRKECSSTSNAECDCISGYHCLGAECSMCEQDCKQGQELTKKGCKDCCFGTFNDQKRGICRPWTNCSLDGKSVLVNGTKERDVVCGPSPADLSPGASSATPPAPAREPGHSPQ


Tests used:
[1] = target: T1, His-tagged ECD of mouse 4-1BB; assay: SPR (Biacore), captured antibody, His-tagged ECD analyte
Experimental: (§1) The binding kinetics of the 4-1BB antibodies for target proteins were determined by using a Biacore T200 surface plasmon resonance system (BlAcore, GE Healthcare, Piscataway, N.J.). Polyclonal goat anti-human Fc antibody (Pierce 31125) was first immobilized to the biosensor surface using standard amine coupling reagents (N-ethyl-N′-dimethylamino-propylcarbodiimide, EDC; N-hydroxysuccinimide, NHS; and ethanolamine HCl, pH 8.5), followed by the capture of antibodies on parallel surfaces at a low flow rate of 10 μL/min. No capture of the antibody was made on the reference surface to serve as a negative control. Antigen (His-tagged ECD of 4-1BB derived from human, cynomolgus monkey, or mouse) was injected to all flow cells at a flow rate of 80 μL/min for three minutes to monitor association followed by a 10-20-minute flow of HBS-EP+running buffer (10 mM HEPES, 150 mM sodium chloride, 3mM EDTA, 0.05% Tween-20, pH 7.5) to monitor the dissociation phase. […] The surface was regenerated by two consecutive injections of 10 mM glycine (pH 1.5) at a flow rate of 60 μL/min at the end of each cycle. Binding data were fit to the 1:1 Langmuir model to extract binding constants from the BlAevaluate software. Double referencing was applied in each analysis to eliminate background responses from the reference surface and buffer only control.

[2] = target: T3, His-tagged ECD of human 4-1BB (human, UniProt Q07011 24-184); assay: SPR (Biacore)
T3 construct: also called hu4-1BB; 4-1BB ECD; not shown: His tag

[3] = target: T3, His-tagged ECD of human 4-1BB; assay: SPR (Biacore), captured antibody, His-tagged ECD analyte
Experimental: as §1

[4] = target: T2, His-tagged ECD of cynomolgus monkey …; assay: as above
Experimental: as §1

Molecule	Kd [1] [nM]	koff [1] [s⁻¹]	kon [1] [M⁻¹ s⁻¹]	binding result [2]	Kd [3] [nM]	koff [3] [s⁻¹]	kon [3] [M⁻¹ s⁻¹]	Kd [4] [nM]	koff [4] [s⁻¹]	kon [4] [M⁻¹ s⁻¹]	binding result [1]
literature anti-4-1BB antibody 3H3	0.98	0.0057	5.8e+06								
literature anti-4-1BB antibody 1D8	3.9	0.008	2.1e+06								
Mouse TABBY9 with mouse IgG1 constant (antibody, V domains shown, Mouse IgG1; also called TABBY9-mIgG1) VH: QVQLKQSGPGLVQPSQSLSITCTVSGFSLTSYGVHWVRQSPGKGLEWLGMIWSGGSTDYNAAFISRLSISKDNSKSQVFFKMNSLQADDTALYFCASYGGFYETMDYWGQGTSVTVSS VL: DIQMTQTTSSLSASLGDRITISCRASQDISNYLNWYQRKPDGTVKLLIYYTSRLHSGVPSRFSGSGSGRDYSLTISNLEQEDIATYFCQQGNTLPYTFGGGTKLEIK				binds							
hu106-4-hIgG4 (antibody, V domains shown, Human IgG4 constant region with the S228P mutation; also called hu106.1x.3x) VH: EVQLVQSGAEVKKPGSSVKVSCKASGYTFTSYYIYWVRQAPGQGLEWIGNIWPGNGGTFYGEKFMGRATFTADTSTSTAYMELSSLRSEDTAVYYCARRPDYSGDDYFDYWGQGTLVTVSS VL: SVELTQPPSVSVSPGQTARITCKLNSGNIGSYYVHWYQQKPGQAPVTMIYRDDKRPDGIPERFSGSSDSSSNSAFLTISGVQAEDEADYYCHSYDSTITPVFGGGTKLTVL	9.3	0.015	1.6e+06		200	0.042	210000	180	0.052	280000	
hu106-7-hIgG4 (antibody, V domains shown, Human IgG4 constant region with the S228P mutation; also called hu106.1y.3x) VH: EVQLVESGGGLVQPGGSLRLSCAASGYTFTSYYIYWVRQAPGKGLEWIGNIWPGNGGTFYGEKFMGRATFSADTSKNTAYLQMNSLRAEDTAVYYCARRPDYSGDDYFDYWGQGTLVTVSS VL: SVELTQPPSVSVSPGQTARITCKLNSGNIGSYYVHWYQQKPGQAPVTMIYRDDKRPDGIPERFSGSSDSSSNSAFLTISGVQAEDEADYYCHSYDSTITPVFGGGTKLTVL	17	0.037	2.2e+06		420	0.047	110000				
hu107-1-hIgG4 (antibody, V domains shown, Human IgG4 constant region with the S228P mutation; also called hu107.1x.1x) VH: EVQLVQSGAEVKKPGSSVKVSCKASDYTFNDYWVSWVRQAPGQGLEWIGEIYPNSGATNFNGKFRGRATLTVDNSASTAYMELSSLRSEDTAVYYCTREYTRDWFAYWGQGTLVTVSS VL: DVVLTQSPLSLPVTLGQPASISCRSSQSLLDSDGNTYLYWFQQRPGQSPRRLIYLVSNLGSGVPDRFSGSGSGTDFTLKISRVEAEDVGVYYCMQPTHAPYTFGQGTKLEIK	4		330000		0.58	8e-05	140000	0.22	5.2e-05		
hu107-3-hIgG4 (antibody, V domains shown, Human IgG4 constant region with the S228P mutation; also called hu107.1x.1y) VH: EVQLVQSGAEVKKPGSSVKVSCKASDYTFNDYWVSWVRQAPGQGLEWIGEIYPNSGATNFNGKFRGRATLTVDNSASTAYMELSSLRSEDTAVYYCTREYTRDWFAYWGQGTLVTVSS VL: DVQLTQSPSSLSASVGDRVTITCRSSQSLLDSDGNTYLYWFQQKPGKAPKRLIYLVSNLGSGVPSRFSGSGSGTDFTLTISSLQPEDFATYYCMQPTHAPYTFGQGTKVEIK	5.1	0.0016	320000		0.81	0.00011	130000	0.29	7e-05	240000	
20H4.9-hIgG4 (antibody, V domains shown) VH: QVQLQQWGAGLLKPSETLSLTCAVYGGSFSGYYWSWIRQSPEKGLEWIGEINHGGYVTYNPSLESRVTISVDTSKNQFSLKLSSVTAADTAVYYCARDYGPGNYDWYFDLWGRGTLVTVSS VL: EIVLTQSPATLSLSPGERATLSCRASQSVSSYLAWYQQKPGQAPRLLIYDASNRATGIPARFSGSGSGTDFTLTISSLEPEDFAVYYCQQRSNWPPALTFGGGTKVEIKR					4.9	0.0021	420000				no binding (tested: antigen between 100 nM and 3.7 nM)
hu106-1-hIgG1 (antibody, V domains shown, 310 is written here; Human IgG1 constant region bearing L234A and L235A; also called hu106.1x.1x) VH: EVQLVQSGAEVKKPGSSVKVSCKASGYTFTSYYIYWVRQAPGQGLEWIGNIWPGNGGTFYGEKFMGRATFTADTSTSTAYMELSSLRSEDTAVYYCARRPDYSGDDYFDYWGQGTLVTVSS VL: NVMLTQPHSVSESPGKTVTISCKLNSGNIGSYYVHWYQQRPGSSPTTMIYRDDKRPDGVPDRFSGSIDSSSNSASLTISGLKTEDEADYYCHSYDSTITPVFGGGTKLTVLG								170	0.1	620000	
hu107-1-hIgG1 (antibody, V domains shown, 312 is written here; Human IgG1 constant region bearing L234A and L235A; also called hu107.1x.1x) VH: EVQLVQSGAEVKKPGSSVKVSCKASDYTFNDYWVSWVRQAPGQGLEWIGEIYPNSGATNFNGKFRGRATLTVDNSASTAYMELSSLRSEDTAVYYCTREYTRDWFAYWGQGTLVTVSS VL: DVVLTQSPLSLPVTLGQPASISCRSSQSLLDSDGNTYLYWFQQRPGQSPRRLIYLVSNLGSGVPDRFSGSGSGTDFTLKISRVEAEDVGVYYCMQPTHAPYTFGQGTKLEIKR								0.13	4e-05	310000	
MOR-7480.1-hIgG2 (antibody, V domains shown) VH: EVQLVQSGAEVKKPGESLRISCKGSGYSFSTYWISWVRQMPGKGLEWMGKIYPGDSYTNYSPSFQGQVTISADKSISTAYLQWSSLKASDTAMYYCARGYGIFDYWGQGTLVTVSS VL: SYELTQPPSVSVSPGQTASITCSGDNIGDQYAHWYQQKPGQSPVLVIYQDKNRPSGIPERFSGSNSGNTATLTISGTQAMDEADYYCATYTGFGSLAVFGGGTKLTVLG											no binding (tested: antigen between 100 nM and 3.7 nM)
